Assay results as given in patent US20220281981A1 (INVECTYS, published 2022).

What was measured:
[1] = target: T1, HLA-G1/5 β2M-free (human, UniProt P17693 25-298, limits assumed); test: flow cytometry, titration of 15E7, readout % of binding
T1 construct: Printed as one antigen, 'HLA-G1/5 β2M-free'; also called HLA-G1/β2M free; HLA-G5/β2M free

[2] = target: HLA-G6 (human, UniProt P17693-6 25-227, limits assumed); test: as above
[3] = target: T2, HLA-G1 β2M-associated, on lentivirus-transduced cells (Jurkat HLA-G1Lv, K562 HLA-G1Lv) (human, UniProt P17693 25-338; P61769 21-119); test: flow cytometry on Jurkat HLA-G1Lv and K562 HLA-G1Lv cells, GAM-PE detection
T2 construct: whole, on cells; also called HLA-G1 B2M-associated
Method: Flow cytometry analyses were performed using LSR FORTESSA (Beckton Dickinson, Le Pont-de-Claix, France); data were analyzed with FlowJo X software (Tree star, Ashland, USA).

B1: 15E7 monoclonal antibody (antibody, V domains shown)
VH: QVQLQQPGAELVRPGSSVKLSCKASGYTFTDYWMDWVKQRPGQGLEWIGTIYPSDSSTHYNQEFKGKATMTVDKSSSTAYMHLSSLTSEDSAVYYCAREGLAGVFYFDYWGQGTTLTVSS
VL: DVLMTQIPFSLPVSLGDQASISCRSSQSIVHRSGNTYLEWYLQKPGQSPKLLIYKVSNRFSGVPDRFSGSGSGTDFTLKISRVEAEDLGVYYCFQGSHLPPTFGGGTTLEIK
notes: Tested as a monoclonal antibody in flow cytometry and detected with goat anti-mouse IgG; also called 15E7 antibody; anti HLA-G-α3 β2M-free 15E7 antibody
EC50 (read off the curve) [1]: ~0.02 µg/mL
EC50 (read off the curve) [2]: ~0.1 µg/mL
binding result [3]: no binding
